Experimental data published in article PMC10148881 (2023).

B1: YKTSAAAA peptide / Pirh2 NTD + RING (residues 1–189) [human] (parent complex)
chain 1: YKTSAAAA
chain 2: MAATAREDGASGQERGQRGCEHYDRGCLLKAPCCDKLYTCRLCHDNNEDHQLDRFKVKEVQCINCEKIQHAQQTCEECSTLFGEYYCDICHLFDKDKKQYHCENCGICRIGPKEDFFHCLKCNLCLAMNLQGRHKCIENVSRQNCPICLEDIHTSRVVAHVLPCGHLLHRTCYEEMLKEGYRCPLCMHS
B2: Ala6/C-degron peptide (sequence: YKTSAAAAAA) / Pirh2 NTD + RING (residues 1–189) [human] (parent complex)
chain 1: YKTSAAAAAA
chain 2: B1 chain 2

Variants of: B1
Assay: ITC

| Variant | Kd |
| --- | --- |
| chain 1 A6I | 2.7 µM |
| chain 1 A6L | 2.8 µM |
| chain 1 A6V | 1.9 µM |
| chain 1 A6S | 3 µM |
| chain 1 A6G | 2.3 µM |

Variants of: B1
Assay: ITC
Remark: another data set of the same source

| Variant | Kd |
| --- | --- |
| chain 1 A8G | 23 µM |

Variants of: B1
Assay: ITC
Remark: another data set of the same source

| Variant | Kd |
| --- | --- |
| chain 1 A5P | 57 µM |
| chain 1 A5G | 55 µM |
| chain 1 A5S | 4.5 µM |

Variants of: B1
Assay: ITC
Remark: another data set of the same source

| Variant | Kd |
| --- | --- |
| chain 1 A7G | 22 µM |
| chain 1 A7S | 20 µM |
| chain 1 A7I | 13 µM |
| chain 1 A7V | 13 µM |
| chain 1 A7P | 26 µM |

Variants of: B2
Assay: ITC

| Variant | Kd |
| --- | --- |
| chain 1 A8T | 0.7 µM |
